Experimental data reported in US6716811B1, “Compounds having affinity for the granulocyte-colony stimulating factor receptor (G-CSFR) and associated uses” (Affymax, Inc., priority 2000, dated 2004).
Where a SMILES comes first, the peptide text is derived from it. Where no end group is shown, it is not given here. MBP = maltose binding protein

How the values were obtained:
Parental Ba/F3 cells = assay: Proliferation of parental Ba/F3 cells; assay type: cell-based, Murine
G-CSFR [1] = molecular target: T1, G-CSFR (Homo sapiens, UniProt Q99062); assay: Ba/F3 G-CSFR cell proliferation assay; assay type: cell-based; parameters: expression vectors encoding the full length human G-CSFR; expressed in transfected cells; host or cells: murine IL-3 dependent Ba/F3 cells; conditions: MBP fusion protein
T1 sequence (Q99062 25-836): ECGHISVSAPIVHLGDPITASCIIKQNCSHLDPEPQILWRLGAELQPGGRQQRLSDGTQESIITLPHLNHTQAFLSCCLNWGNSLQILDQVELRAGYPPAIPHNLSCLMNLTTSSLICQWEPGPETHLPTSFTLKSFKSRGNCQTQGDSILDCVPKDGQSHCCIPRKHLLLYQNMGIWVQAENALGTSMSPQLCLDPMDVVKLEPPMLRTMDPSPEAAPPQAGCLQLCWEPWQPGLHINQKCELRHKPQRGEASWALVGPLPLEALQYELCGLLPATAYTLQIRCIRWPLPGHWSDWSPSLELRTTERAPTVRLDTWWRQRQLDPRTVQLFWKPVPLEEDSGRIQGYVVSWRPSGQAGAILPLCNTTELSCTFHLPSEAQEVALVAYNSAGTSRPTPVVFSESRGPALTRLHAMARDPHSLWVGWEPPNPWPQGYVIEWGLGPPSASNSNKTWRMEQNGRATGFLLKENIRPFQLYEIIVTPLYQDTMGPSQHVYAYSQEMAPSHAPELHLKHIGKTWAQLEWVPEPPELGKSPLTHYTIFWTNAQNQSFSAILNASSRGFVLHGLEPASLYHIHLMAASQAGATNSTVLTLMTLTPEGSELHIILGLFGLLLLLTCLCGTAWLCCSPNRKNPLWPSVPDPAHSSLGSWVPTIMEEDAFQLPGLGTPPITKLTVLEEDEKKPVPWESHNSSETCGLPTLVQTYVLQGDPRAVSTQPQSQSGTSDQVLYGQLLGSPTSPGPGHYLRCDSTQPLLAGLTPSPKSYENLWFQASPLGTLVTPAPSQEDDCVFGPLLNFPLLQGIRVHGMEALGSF
Method: (§1) The bioactivity of selected peptides of the invention was measured in cell-based assays. […] Murine IL-3 dependent Ba/F3 cells were co-transfected with expression vectors encoding the full length human G-CSFR and a luciferase reporter gene controlled by the fos promoter.
(§2) This is true for most of the MBP fusions tested. Presumably the fusion protein is dimerized through intermolecular disulfide bonds between cysteine residues present in the peptide sequence.

[2] = molecular target: T2, human thrombopoietin receptor (Homo sapiens, UniProt P40238); assay: Proliferation of Ba/F3 cells expressing the human thrombopoietin receptor; assay type: cell-based
T2 construct: expressed in transfected cells; host or cells: Ba/F3 cells
T2 sequence (P40238 26-635): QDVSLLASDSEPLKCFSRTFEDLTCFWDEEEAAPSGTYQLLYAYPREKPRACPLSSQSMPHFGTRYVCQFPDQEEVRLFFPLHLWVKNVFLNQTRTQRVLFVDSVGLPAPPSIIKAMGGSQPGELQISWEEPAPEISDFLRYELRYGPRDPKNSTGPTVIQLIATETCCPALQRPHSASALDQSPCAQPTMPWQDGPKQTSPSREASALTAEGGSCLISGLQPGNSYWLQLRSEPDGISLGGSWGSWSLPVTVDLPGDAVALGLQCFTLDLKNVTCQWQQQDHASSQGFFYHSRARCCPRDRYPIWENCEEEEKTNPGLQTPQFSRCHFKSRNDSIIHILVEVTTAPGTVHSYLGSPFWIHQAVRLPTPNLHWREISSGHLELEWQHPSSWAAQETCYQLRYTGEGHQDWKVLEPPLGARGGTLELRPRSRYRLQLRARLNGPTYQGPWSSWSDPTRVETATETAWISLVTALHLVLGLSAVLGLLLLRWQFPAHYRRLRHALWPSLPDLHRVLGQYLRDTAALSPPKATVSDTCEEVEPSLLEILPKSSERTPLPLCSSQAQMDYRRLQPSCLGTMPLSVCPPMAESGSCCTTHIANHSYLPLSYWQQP
Source text: as §2

G-CSFR [3] = molecular target: T1, G-CSFR; assay: Ba/F3 G-CSFR reporter cell (fos promoter/luciferase) assay; assay type: cell-based; parameters: expression vectors encoding the full length human G-CSFR; expressed in transfected cells; host or cells: murine IL-3 dependent Ba/F3 cells
Method: as §1
Reporter cell assays were performed on the above cell line using peptides of the invention. The cells were maintained in complete RPMI-164Q media containing 10% fetal calf serum, 2 mM L-glutamine, 1X antibiotic-antimycotic solution (Life Technologies), and 10% WEHI-3 conditioned media (source of murine IL-3). For reporter assays, cells were starved overnight in medium which lacks WEHI-3 to reduce luciferase expression to background levels. The cells were then washed twice in PBS, resuspended in media which lacks WEHI-3 conditioned media, and added to wells of a 96-well microtiter plate containing dilutions of peptide or G-CSF at 5×10^4 cells/well. Plates were incubated for 2 hours at 37° C. in a humidified 5% CO2 incubator and luciferase activity was measured by the addition of luciferin (LucLite—Packard Biosciences) to each well. The plates were read in a TopCount (Wallac) microtiter plate luminometer.
To measure the ability of selected peptides of the invention to block G-CSF mediated receptor activation, dilutions of peptide were combined with Ba/F3 G-CSFR reporter cells as described above. After a 30-minute incubation at 37° C., G-CSF was added to each well. The cells were incubated for 2 hours at 37° C. and the amount of luciferase produced was measured as described above.
Ligand mediated G-CSF receptor activation in these cells results in the expression of luciferase, providing a detectable biological signal.
A biosassay was used to measure the potency of AF15846 and other possible G-CSF receptor antagonists. This bioassay utilizes a Ba/F3 cell line containing the rhGCSF receptor and a c-fos promoter/luciferase gene construct (Ba/F3/rhGCSF-R/pFos-1cf). Competent binding of a ligand to the receptor results in expression of lucifierase as the biological readout.

G-CSF receptor [4] = molecular target: T3, G-CSF receptor (Homo sapiens, UniProt Q99062); assay: 125I-G-CSF competition binding assay of oxidized AF15846 fractions; conditions: HPLC fractions of oxidized AF15846; FIG. 4
T3 sequence (Q99062 25-836): T1 sequence (Q99062 25-836)
Source text: (§3) Several fractions containing oxidized AF15846 resulting from treatment under the conditions described above were collected subjected to testing in two assays: an ^125I-G-CSF competition binding assay and an ELISA format competitive G-CSF receptor-binding assay.

[5] = Incubation of oxidized peptide at 37° C., HPLC pattern; assay type: physicochemical; conditions: pH 6.0 or pH 7.5, clean profiles only at pH 4.1
Method: The oxidized peptide was also reacted with N-ethylmaleimide (NEM) at 37° C. for 1 hour in 100 mM ammonium acetate, pH 4.1 to see if any free Cys residues remained in the molecule. If this were the case, treatment with the alkylating reagent would result in a shift of the HPLC retention time. Upon incubation with NEM, no such shift was seen (FIG. 7). In contrast, when the oxidized peptide was incubated with the disulfide specific reducing agent TCEP, also in ammonium acetate, a shift to a later retention time, consistent with reduced peptide, was found. The reduced peptide was modified with NEM to produce a peptide that eluted even later than the reduced form.
It was necessary to drop to pH 4.1 to obtain clean profiles upon NEM treatment.

G-CSF receptor [6] = molecular target: T3, G-CSF receptor; assay: ELISA format competitive G-CSF receptor-binding assay; conditions: HPLC fractions of oxidized AF15846
Source text: as §3

NFS-60 cells = assay: Cell-based assays using NFS-60 cells; parameters: species or system Murine
[7] = Stability in cell culture medium (NFS-60-conditioned medium); assay type: in vitro ADME; conditions: overnight incubation in NFS-60-conditioned medium
G-CSFR [8] = molecular target: T1, G-CSFR; parameters: made in house; conditions: read-out: observed affinity for its receptor; cited from earlier work

MBP fusion protein of Example 78: Example 78 peptide fused to the carboxy-terminus of the maltose binding protein (MBP); monomeric and dimeric species ({MBP}-LLDICELKLQECARRCN; cysteine pairing not given here; also: monomeric and dimeric species)
proliferation in response to fusion protein (Parental Ba/F3 cells): did not proliferate
concentration of maximal activity in Ba/F3 G-CSFR cell proliferation assay (G-CSFR [1]): 100 nM
proliferation in response to fusion protein [2]: did not proliferate

CC[C@H](C)[C@H](NC(=O)[C@H](CC(=O)O)NC(=O)[C@H](CC(C)C)NC(=O)[C@@H](N)CC(C)C)C(=O)N[C@@H](CS)C(=O)N[C@@H](CCC(=O)O)C(=O)N[C@@H](CC(C)C)C(=O)N[C@@H](CCCCN)C(=O)N[C@@H](CC(C)C)C(=O)N[C@@H](CCC(N)=O)C(=O)N[C@@H](CCC(=O)O)C(=O)N[C@@H](CS)C(=O)N[C@@H](C)C(=O)N[C@@H](CCCNC(=N)N)C(=O)N[C@@H](CCCNC(=N)N)C(=O)N[C@@H](CS)C(=O)N[C@@H](CC(N)=O)C(=O)O [Example 53, LLDICELKLQECARRCN] (H-LLDICELKLQECARRCN-OH; N-terminus and C-terminus assumed)
effect on G-CSF dose-response curve (luciferase) (G-CSFR [3]; Ba/F3/rhGCSF-R/pFos-lcf, FIGS. 10A, 10B, 11): dose-response curve shifting to higher concentrations
effect on G-CSF response (luciferase) (G-CSFR [3]; increasing concentrations of peptide added before G-CSF, FIG. 3): G-CSFR antagonist

Tris-oxidized species: active oxidized dimer of AF15846 formed in 50 mM Tris, pH 8 (LLDICELKLQECARRCN; also: homodimer of two chains joined by three parallel interchain disulfides, disulfide at 5, other end not in the chain, disulfide at 12, other end not in the chain, disulfide at 16, other end not in the chain)
activity of fractions in 125I-G-CSF competition binding assay (G-CSF receptor [4]): highest activity
stability on incubation at higher pH [5]: disulfide scrambling and/or degradation
activity of fractions in ELISA format competitive G-CSF receptor-binding assay (G-CSF receptor [6]): highest activity

EQSNSGWVWV-NH2 [Example 74]
antagonist activity in cell-based assays (NFS-60 cells): antagonist activity at high concentrations
stability in cell culture medium [7]: no loss of activity was observed

B1: Granulocyte-colony stimulating factor (protein)
chain: TPLGPASSLPQSFLLKCLEQVRKIQGDGAALQEKLCATYKLCHPEELVLLGHSLGIPWAPLSSCPSQALQLAGCLSQLHSGLFLYQGLLQALEGISPELGPTLDTLQLDVADFATTIWQQMEELGMAPALQPTQGAMPAFASAFQRRAGGVLVASHLQSFLEVSYRVLRHLAQP
Kd (G-CSFR [8]): ~100 pM
luciferase response of reporter cells (G-CSFR [3]; ligand alone, FIG. 2): dose dependent manner
